Test results published in the supplement of paper PMC10126150.
± gives the standard deviation of the averaged measurements.

Test system: ATP
Assay: switch fluorescence ratio, 500 uM ATP over buffer (Cy3 cluster intensity, sum of 5 cycles each) (fold (ratio)); higher = stronger signal-on switching upon ATP binding; sequences stand for … in TCGTCGGCAGCGTCAGATGTGTATAAGAGACAGTTTTTTTTTTTTTTTTTTTTTTTTT…TC
Settings: aptamer strand: ATP DNA aptamer (quencher-CACCTGGGGGAGTATTGCGGAGGAAGG + anchor), 100 nM annealed; ATP concentration: 500 uM
Outline: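 Between each of five buffer/ATP cycles, the flow-cell was stripped with NaOH and re-annealed. Each cycle imaged Cy3-labelled switching-strand clusters, annealed to 100 nM quencher-labelled ATP aptamer on a modified Illumina MiSeq flow-cell, first in selection buffer and then after 15 min with 500 uM ATP at 22 °C. The fluorescence ratio is summed target-cycle over summed buffer-cycle Cy3 intensity per cluster, averaged per switch-domain sequence, with clusters outside 100-1000 RFU excluded.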
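Further: ATP exposure 15 min at 22 °C before imaging.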

| Sequence | switch fluorescence ratio |
| --- | --- |
| ATTACGGTGG | 1 ± 0.045 |
| ATTACTGCAT | 1.07 ± 0.059 |
| ATTACTGGTG | 1.1 ± 0.019 |
| ATTACTTTTC | 1.006 ± 0.0057 |
| ATTAGAAAAG | 0.991 ± 0.03 |
| ATTAGACAGC | 1.01 ± 0.032 |
| ATTAGGAAAA | 1.02 ± 0.025 |
| ATTAGGATGT | 0.9948 ± 0.0027 |
| ATTAGGCGTG | 0.987 ± 0.01 |
| ATTAGGGAGC | 0.989 ± 0.011 |
| ATTAGGGCAT | 1.006 ± 0.0075 |
| ATTAGGGCCA | 1.007 ± 0.0078 |
| ATTAGGGGCC | 0.976 ± 0.018 |
| ATTAGGGGGA | 1.03 ± 0.014 |
| ATTAGGTGTT | 1.03 ± 0.066 |
| ATTAGTACTT | 0.987 ± 0.015 |
| ATTAGTAG | 1.022 ± 0.0095 |
| ATTAGTGATA | 0.9756 ± 0.0025 |
| ATTAGTTGTG | 0.976 ± 0.011 |
| ATTATAACAG | 1.038 ± 0.009 |
| ATTATAACTC | 0.957 ± 0.036 |
| ATTATACCTT | 1.182 ± 0.011 |
| ATTATAGTTG | 1.039 ± 0.0094 |
| ATTATATCGG | 0.9981 ± 0.0031 |
| ATTATATGGG | 1.016 ± 0.0029 |
| ATTATCAGCC | 1.022 ± 0.0041 |

| Sequence | switch fluorescence ratio |
| --- | --- |
| ATTATCGGGA | 1.02 ± 0.0017 |
| ATTATCGGTA | 0.974 ± 0.058 |
| ATTATCTGGT | 1.02 ± 0.043 |
| ATTATGCCTG | 1.06 ± 0.044 |
| ATTATGCTAT | 1.052 ± 0.0094 |
| ATTATGGTTA | 0.9884 ± 0.0097 |
| ATTATGTTCT | 1.01 ± 0.013 |
| ATTATTAAAT | 1.08 ± 0.18 |
| ATTATTAAGT | 0.987 ± 0.025 |
| ATTATTATGC | 0.97 ± 0.025 |
| ATTATTTACT | 1.018 ± 0.0017 |
| ATTATTTGTC | 1.01 ± 0.044 |
| ATTCAACGGG | 1.04 ± 0.013 |
| ATTCAAGGTT | 0.973 ± 0.024 |
| ATTCACCGGA | 1.031 ± 0.0044 |
| ATTCACTCGG | 1.38 ± 0.48 |
| ATTCAGTCAT | 0.9901 ± 0.0021 |
| ATTCATCATT | 1.003 ± 0.0043 |
| ATTCCCGGTT | 1.03 ± 0.022 |
| ATTCCGCCGA | 1.48 ± 0.08 |
| ATTCCGGCGG | 0.976 ± 0.015 |
| ATTCCTAGGG | 1.048 ± 0.0022 |
| ATTCCTCAGC | 2.39 ± 0.49 |
| ATTCCTGGGG | 1.05 ± 0.012 |
| ATTCCTTGGT | 1.03 ± 0.022 |
| ATTCGGGTGT | 1.151 ± 0.0081 |

| Sequence | switch fluorescence ratio |
| --- | --- |
| ATTCGGTTTT | 0.97 ± 0.013 |
| ATTCGTAGGG | 1.01 ± 0.012 |
| ATTCGTCGTC | 0.983 ± 0.077 |
| ATTCGTTTTA | 0.975 ± 0.013 |
| ATTCGTTTTT | 1 ± 0.021 |
| ATTCTCACGT | 1.06 ± 0.021 |
| ATTCTCCGGG | 1.18 ± 0.065 |
| ATTCTGATTG | 1.02 ± 0.033 |
| ATTCTGGGTT | 0.987 ± 0.032 |
| ATTCTGTAAT | 1.01 ± 0.017 |
| ATTCTTCTCA | 1.02 ± 0.028 |
| ATTCTTGGGT | 1 ± 0.075 |
| ATTCTTTGGC | 1.04 ± 0.097 |
| ATTGAAAAAG | 1.01 ± 0.025 |
| ATTGAAAAAT | 0.983 ± 0.012 |
| ATTGAAACGA | 1.08 ± 0.039 |
| ATTGAACCGG | 1.04 ± 0.012 |
| ATTGAAGATG | 0.971 ± 0.025 |
| ATTGACATGT | 1.03 ± 0.037 |
| ATTGACGGCA | 1.02 ± 0.032 |
| ATTGACGTAT | 1.07 ± 0.13 |
| ATTGACTCTT | 1.003 ± 0.0074 |
| ATTGAGGATG | 1.07 ± 0.17 |
| ATTGAGTCTG | 1.02 ± 0.047 |
| ATTGAGTGGC | 0.928 ± 0.026 |
| ATTGAGTGTG | 0.979 ± 0.022 |

| Sequence | switch fluorescence ratio |
| --- | --- |
| ATTGATTTCT | 1.012 ± 0.006 |
| ATTGCAGATC | 1.05 ± 0.058 |
| ATTGCATGAG | 1.004 ± 0.0014 |
| ATTGCGAATT | 1.02 ± 0.022 |
| ATTGCGCCCG | 1.032 ± 0.0088 |
| ATTGCGGGTA | 0.992 ± 0.042 |
| ATTGCTGTTT | 1.037 ± 0.0019 |
| ATTGGACAAT | 1.02 ± 0.032 |
| ATTGGAGGAT | 0.96195 ± 0.0005 |
| ATTGGAGGCT | 0.971 ± 0.075 |
| ATTGGAGGGG | 1.008 ± 0.0041 |
| ATTGGATAAT | 0.9967 ± 0.0091 |
| ATTGGCGTAT | 0.987 ± 0.026 |
| ATTGGCTACT | 0.987 ± 0.013 |
| ATTGGCTGGA | 0.96 ± 0.076 |
| ATTGGCTGTT | 0.997 ± 0.052 |
| ATTGGGACAG | 0.994 ± 0.031 |
| ATTGGGATGA | 0.976 ± 0.025 |
| ATTGGGCAGG | 1.04 ± 0.017 |
| ATTGGGCTGC | 0.977 ± 0.01 |
| ATTGGGGCGT | 0.977 ± 0.016 |
| ATTGGGGTTT | 1 ± 0.019 |
| ATTGGGTAT | 0.988 ± 0.021 |
| ATTGGGTCGT | 0.992 ± 0.021 |
| ATTGGTGAGG | 0.988 ± 0.032 |
| ATTGGTTAGG | 1.01 ± 0.028 |

| Sequence | switch fluorescence ratio |
| --- | --- |
| ATTGGTTTCT | 1.04 ± 0.074 |
| ATTGTAATTG | 0.993 ± 0.012 |
| ATTGTAGTGT | 1.01 ± 0.025 |
| ATTGTATGGG | 0.9744 ± 0.0071 |
| ATTGTCTCTA | 0.999 ± 0.032 |
| ATTGTGATTG | 0.997 ± 0.038 |
| ATTGTGTACT | 1 ± 0.031 |
| ATTGTTAAGC | 1.02 ± 0.075 |
| ATTGTTACGT | 0.998 ± 0.012 |
| ATTGTTCAAA | 1 ± 0.015 |
| ATTGTTGTTT | 0.981 ± 0.019 |
| ATTTAAAACC | 1.06 ± 0.015 |
| ATTTAAAAGT | 0.991 ± 0.037 |
| ATTTAAATAG | 0.993 ± 0.035 |
| ATTTAACGGT | 1.03 ± 0.022 |
| ATTTAAGTT | 1.0014 ± 0.00081 |
| ATTTAATTTT | 1.02 ± 0.019 |
| ATTTAGACGT | 0.974 ± 0.026 |
| ATTTAGGGGG | 0.966 ± 0.02 |
| ATTTAGTGAC | 1.02 ± 0.051 |
| ATTTAGTGGT | 1 ± 0.028 |
| ATTTATATAT | 1 ± 0.05 |
| ATTTATTTGC | 1.01 ± 0.022 |
| ATTTCGACAC | 1.0254 ± 0.001 |
| ATTTCGCCCG | 1.07 ± 0.037 |
| ATTTCGGCAC | 0.9959 ± 0.0091 |

| Sequence | switch fluorescence ratio |
| --- | --- |
| ATTTCGTGGG | 0.978 ± 0.023 |
| ATTTCTCAGG | 1.07 ± 0.017 |
| ATTTCTGTTT | 1 ± 0.015 |
| ATTTGAACAG | 0.978 ± 0.015 |
| ATTTGAATTA | 1.01 ± 0.034 |
| ATTTGCAATT | 1.03 ± 0.034 |
| ATTTGCAGCA | 1.02 ± 0.014 |
| ATTTGCCTGT | 0.982 ± 0.033 |
| ATTTGCGGTT | 0.9949 ± 0.0022 |
| ATTTGCTTTA | 1.02 ± 0.012 |
| ATTTGGAGGG | 0.969 ± 0.0034 |
| ATTTGGAGTC | 1 ± 0.018 |
| ATTTGGGAGT | 1 ± 0.025 |
| ATTTGGTGGG | 0.97 ± 0.05 |
| ATTTGTATCC | 0.994 ± 0.021 |
| ATTTGTATTC | 1.03 ± 0.031 |
| ATTTGTCAAG | 0.999 ± 0.016 |
| ATTTGTCAGA | 0.98 ± 0.015 |
| ATTTGTCCAA | 0.993 ± 0.028 |
| ATTTGTGATG | 0.994 ± 0.047 |
| ATTTGTTATT | 1.01 ± 0.024 |
| ATTTTAACGT | 1.01 ± 0.046 |
| ATTTTAAGTT | 0.99 ± 0.034 |
